This note sets out measurements from a protein production outcome set (Wang et al. 2014).
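Note: failed if final PepcDB status was selected cloned or expressed and not failed if soluble or beyond.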

The data set can be described thus: label from the status in PepcDB records.
Turning to “MAEATSALRKPVFTKVNELRPGTNGHSLNVKVVNTKMVMQRGGGRPMGPQSRQMRIAECLVGDETGIIIFTARNDQVDMMKEGSVVTLRNAKIDMYKGSMRLAVDRWGRVEVAEEPTDITVKDDNNLSLIEYELVSVET”, the protein production entry was “failed”.
As for “MAEDQTVLAIDIGGSHVKIGLSTDGEERKVESGKTMTGPEMVAAVTAMAKDMTYDVIAMGYPGPVVHNKPLREPVNLGEGWVGYDYEGAFGRPVRIVNDALMQAIGSYNGGRMLFLGLGTGLGAAMIVENVAQPMEIAHLPYRKGKTYEHYVSEAYREKKGNAKWQKRVQDVVERLSAALEPDEVVIGGGNVERLENLPPKCRRGDNAMAFEGGFRLWKNADLIV”, the protein production result is reported as “not failed”.
As to “MAEDYKLIDNEEKHRYEFQIDDKIAKIDYIKSNNGEIYLVHTEVPASLGGRGVGSQLAEKTLADIERQGLRLVPLCPFVAGYIHKHPEWKRIVMRGIHIK”, the protein production entry is on record as “failed”.
For “MAEEHRCETPEGHRLCVNNCGFFGSSATMNLCSNCYGDLCLKQQQQASMKSTVESSLSPVIAPVLENYAAELEIPTTKKTEEKKPIQIPTEQPSPPQRPNRCTVCRKRVGLTGFMCRCGTTFCGSHRYPEVHGCTFDFKSAGREEIAKANPLVIAAKLQKI”, the protein production result was “failed”.
For “MAEEQQNSSYSIGGNILPTPEEAATFQPQVVAEGGWDKCWEDGVTPWDQGRATPLILHLLDSSALPLGRTLVPGCGGGHDVVAMASPERFVVGLDISDKALNKANETYGSSPKAEYFSFVKEDVFTWRPNELFDLIFDYVFFCAIEPEMRPAWGKSMHELLKPDGELITLMYPMTDHEGGAPYKVALSSYEDVLVPVGFKAVSVEENPDSIPTRKGKEKLARWKKIN”, the protein production result is “failed”.
As for “MAEEVRQELSALAAIFCGPNEWEMLSCSETDGAVFRIHTTAEGLVGEDVPLELAFHLPVGYPLCLPGISVTSEHLTRAQCVTAKEKLLGEARKLVSEPMVHELVLWIQQNLRLVLSQPETVSSHEKCTLPESATGDDGPWMTLLRLDHMRARTKYVKAVEKWASELRLTGRLMFMGKLILILLQGDRSNIKEYLILQKTSKVDVDSSGKKCKEKMISVLSETKVQTEHKRFLAFEVKEYSTLEELQKEFGAAGLGELFSECVLGLVK”, the protein production entry is “failed”.
“MAEIYRETEVTVARALRPPVPPKRASWIGTFFGVAADPRTYGALFYMLLSLLTGVFYFTWVVTGASLSVGMLILIIGVPLLVLFFGSVRVLSLVEGRVVETLLGVRMPRRPQHPGLQGGWLQRIGAMFTDARTWSTMLYFLLMLPLGILYFTVFCTLLSLSLGLAASPIAVLFDNVAVLTWDGVDVTSAWLTLPLCVVGVLLLFVTLHLARAFGTLHGMFAKQLLVKGGEAAA”: the protein production entry is on record as “failed”.
As to “MAEKQYDFTHVPKRQGNSIKWGVLKEKELPMWIAEMDFKIAPEIMASMEEKLKVAAFGYESVPAEYYKAVADWEEIEHRARPKEDWCVFASGVVPAISAMVRQFTSPGDQILVQEPVYNMFYSVIEGNGRRVISSDLIYENSKYSVNWADLEEKLATPSVRMMVFCNPHNPIGYAWSEEEVKRIAELCAKHQVLLISDEIHGDLVLTDEDITPAFTVDWDAKNWVVSLISPSKTFNLAALHAACAIIPNPDLRARAEESFFLAGIGEPNLLAIPAAIAAYEEGHDWLRELKQVLRDNFAYAREFLAKEVPEVKVLDSNASYLAWVDISALGMNAEDFCKYLREKTGLIISAGNGYRGNGHEFVRINLACPKELVIDGMQRLKQGVLNLNN”, the protein production entry is recorded as “not failed”.
Consider “MAEKRTLIAVIADEDTTTGLLLAGIGQITPETQEKNFFVYQEGKTTKEEITDKFNHFTEERDDIAILLINQHIAENIRARVDSFTNAFPAILEIPSKDHPYDPEKDSVLKRVRKLFGE”, for which the protein production entry is reported as “failed”.
Turning to “MAELDIGQHCQVQHCRQRDFLPFVCDGCSGIFCLEHRSKDSHGCSEVNVVKERPKTDEHKSY”, the protein production entry is recorded as “not failed”.
For the sequence “MAELNFKAIEEKWQKRWLEAKIFEPNIRDKPKEKKFYITVAFPYLSGHLHVGHARTYTIPDVIARFKRMQGYNVLFPMAWHITGSPIVGIAERIKNRDPKTIWIYRDVYKVPEEILWTFEDPINIVKYFMKAAKETFIRAGFSVDWSREFYTTSLFPPFSKFIEWQFWKLKEKGYIVKGAHRVRWDPVVGTPLGDHDLMEGEDVPILDYIIIKFELRENGEVIYLPAATLRPETVYGVTNMWVNPNATYVKAKVRRKDKEETWIVSKEAAYKLSFQDREIEVIEEFKGEKLIGKYVRNPVSGDEVIILPAEFVDPDNATGVVMSVPAHAPFDHVALEDLKRETEILEKYDIDPRIVENITYISLIKLEGYGDFPAVEEVNKLGIKSQKDKEKLEQATKTIYKAEYHKGIFKVPPYEGKPVQEVKEAIAKEMLEKGIAEIMYEFAEKNVISRFGNRAVIKIIHDQWFIDYGNPEWKEKARKALERMKILPETRRAQFEAIIDWLDKKACARKIGLGTPLPWDPEWVIESLSDSTIYMAYYTISRHINKLRQEGKLDPEKLTPEFFDYIFLEEFSEDKEKELEKKTGIPAEIIHEMKEEFEYWYPLDWRCSGKDLIPNHLTFFIFNHVAIFREEHWPKGIAVNGFGTLEGQKMSKSKGNVLNFIDAIEENGADVVRLYIMSLAEHDSDFDWRRKEVGKLRKQIERFYELISQFAEYEVKGNVELKDIDRWMLHRLNKAIKETTNALEEFRTRTAVQWAFYSIMNDLRWYLRRTEGRDDEAKRYVLRTLADVWVRLMAPFTPHICEELWEKLGGEGFVSLAKWPEPVEEWWNETIEAEEEFIRSVMEDIKEIIEVAKIENAKRAYIYTAEDWKWKVAEVVSEKRDFKSSMEELMKDSEIRKHGKEVAKIVQKLIKERTFDVKRINEEKALREAKEFMEKELGIEIIINPTEDKGGKKKQAMPLKPAIFIE”, the protein production result is given as “not failed”.
On to “MAEQHGDSPVPVELSVVGGFLIAVIVGMLFPADAMTRWMFHPAVVAGCCWAGQLWYVGRKLSVPPAAGNPWRYIFGMANTVTLLRGGLYAVVAGFLVVPATTDLAWVPAACYGVGVVLDKLDGTVARTVGEQTQLGTRLDMAFDTFGFVVAPLVAVFWGQLPVLYLSLSAARYAYVGGIRWRRYRDRPVFERPDSNLGKYLAGVQMVFITAALVPVVPTELVFRLTPVVLAPSLAVFLRDFLVASGRLPREWFDRQR”, for which the protein production result is reported as “failed”.
Take “MAEQMRRVARLFGDWPETIIWTCLEGTMGDIYVDDSQSPQSALALYGRQSFFGFLAGQPHRDLLKICEGKNIILVPQNQAWSDLIEEVYGDGVRFFTRYATKKDTEFDLGHLQKLVDDLPESFDMKLIDRNLYETCLVEEWSRDLVGNYIDVEQFLDLGLGCVILHKGQVVSGASSYASYSAGIEIEVDTREDYRGLGLAKACAAQLILACLDRGLYPSWDAHTLTSLKLAEKLGYELDKAYQAYEWR”: the protein production result was “not failed”.
“MAERRVALVMADNDYRLVRPLANPIHDGEAMEAALKKLGFEVILETNRDLRRMRRALDDFREDAKGADVALVYFSGHGVEISGDNRLLPVDADASSVDQLDKTSLPLEEVRDAVAATAKVGLIVLDACRSDPFSASSGDGRGATSLTKDVADKVKPGLGRVGRAENILFAFSAAPGETAADGTGENSPFTTALTKYLATDGLEIRSVLTLVQQEVYDLSRGKQLPYVESGLPKLFFAAAAKEQLPERERLLLAMADVTPEMRGEVEQIASDADMPLAPLYGALISSDASHLSADSLNARLREAADAFVKVRSEMKTLASDDPQVAELRRQAEEQLSLGAFDGARALLAKAADIDNVSRQALKVNFASRTLSEAATRFLSGGAARADLDYTTAIGDFETVLSLYGEAGQTSLSLEQADRQSRTLEELGILYTTVGNVEAAGRAFTALLTNLEQRSRQETDPSVKRDLAISHIKLANIKMVQGDLPTSLEHYEAARDMLQDLTASVPDEKSWLGDLAMANDKIGNVLATQGDVGAAAKAYQQSLSIKRKLVDAQPNSASLLRDLTITYDEIGDLARTAGQLDGAQTAFEESLRIRLVLAENKPDPERQRAVSVSHERIGDVLRERGDAAGALVAYSKSQAIAEELVRHDPNDTDLKRDLSISYAKIGNALNDQENWPAALASYQQALAVARELAADDPGNTDWQRDLSVCLEKVAGVLDAQGDIRSALQNYQDSLAIVDRLTKLDPGNSDWQRDLSITLSEIGMLETRQRHFEGSRKAFEASLGIRQKLAQSDPNNAIWQFDLVQAYINYAYVAKDPKAVLTKALNLTLDLDRTGRLAPRDKPTIKYLRGLLAKLNAGKK”: the protein production result is listed as “failed”.
As to “MAESTDQTEQLRELAEIGLEGYAPYLMNRIMGRYNANLRKEMTALGLSTAKMRALAILSAKDGLPIGTLGIFAVVEQSTLSRALDGLQADGLVRREVDSDDQRSSRVYLTPAGRAVYDRLWPHMRASHDRMFQGITPQERQAFLATLNKMLANIRVHEI”, the protein production entry is “not failed”.
To “MAESTRIGQESRVTLHFALKLEDGNVVDSTFDKQPASFKVGDGNLLPGFEQALFGLKAGDKRTLSILPEQGFGQPNPQNVQIMPRDQFQDMELAEGLLVIFNDAAKTELPGVVKAFDEQQVTVDFNHPLAGKTLAFEVEIIDVQPA” belongs “failed”.
“MAETIISLLSPTLDIKSPYYFNPDYLHQFNMHTNTAIDKLSEAKDNYAIWKLRFFDLLQFTNKTGFIDGTLPKPDPSSPYYEPWKQCNAIVLHWLSNTVTDTLQNHVLQAETVHKAWEDLRRIFVPCIDFKIYELRQRLATLRQGGDSVAEYFGKLSKAWLELKAYDPVQECKCGGCDCESEKRATEAREKEQRYAFLMGLNKEFDYVKMKVMHKKIPPSVYQAYEMVVYSEAMMKWKMGGRI”: the protein production result is given as “failed”.
“MAEVKTRDEHDEEPPRFDAQAATIAPETILLHPGPAAIVALGGGEALCNALGEPLRPLFSPEAADSLLPEIRSALETGVPQQKVVDVGRDGLPAQFDLIILPTAEPGRVVVIGRDVTLERTLRKALTDSRQRYKDFVDLSIDFTWETGPDGRFVFVSPDGALGYAARDLVGALPWTLMDITDAQSGATVFNSPVRVKDVDIWVRRRDGTLACLKTSSMPVFDASGEWSGGRGVCHDITEQHDRDKALARALNRQRVVANVERTFRDEIDPSNMLNVAAEALARSVGGDGCLIYRAALDDGPDRPFLPRGRFGEGGDEKVVLTLEALGEGAHAQTTPDGKWTVLVAASRYRRQINGAVVLWRRIERGAWSEDDHLLIVDVANQIGSANEQIGQHDRIISMSRTDGLTGLLNRRAFFDDMDRRLKGPPGLVERRAGEEAARRSERPARSALLYIDLDNFKWVNDAHGHLRGDEALMTVRKILTDHTRATDIVARLGGDEFAIWLEGADAEAASAKAAEILAEDALLRPFDGSPDRPLSLSIGLAIHDPASGEGVEDLTARADMAMYAAKHGGKGRFSLSLPPPHTPT”: the protein production entry is given as “failed”.
Consider “MAFDAARYVHRYYASLAPAPGNEYPRLRAWEYLWEYVWDPSRSWDDLTAPEQLDTTALHLGFYLANWGMFRGSSGLLQNSNLDLMKALARQLFSGAGPELFELSLVDFAGNGARLAHNRKLLETVLGSMDALSSRVSWTDTLKSKILLGVWGEFPALDRHYVAACRALYPRRGLTSVNGGTLTALHRLIGEERLSFPRLETARKGLLYPTGRLADMAFFQYGLENALEHHHHHH”, for which the protein production entry is listed as “not failed”.
As for “MAFIESWAKRTWLVPPQMQLYVDYKIKVTEILTNYTSIEEIHSYSIDESFLDITESLNFFYPDIRNRYEQMNLITLDLQREILDKLGLYVTVGMGDNPLLAKLAMDNYAKHNQNMRALIRYLEHHHHHH”, the protein production result is “failed”.
Turning to “MAFIIDLLLLCCSAFMSSCEVAYFSLKPIDLQNIRERNHSSDIALSNLLDNSNQLLATILIGNNVINVAIVILSNYAIEQTFVFSSPIIGFLIQTILLTTVLLLFGEILPKVYARKNPLQYSRFSAAAMSVIYKILSPFSKLLVKSTGIVTRGISKKKYDMSVDELSKAVALTTTEGEPEEKEMINEIIKFYNKTACEIMVPRIDIVDVDLSWPFRKMLDFVVSSGYSRLPVSEGSEDNIKGVIYIKDLIPHMDKGDEFDWHPLIRKAYFVPENKRIDDLLEEFRANKVHVSIVVDEFGGTCGLITMEDILEEIVGEITDEYDEEELPFKVLGDGSYLFEGKTSLSDVRHYLDLPENAFGELGDEVDTLSGLFLEIKQELPHVGDTAVYEPFRFQVTQMDKRRIIEIKIFPFERTWEVE”, the protein production result is listed as “failed”.
